According to paper PMC5834346 (Familial cancer, 2018):

T1: XRCC3 WT (human, UniProt O43542 1-346)
T1 sequence (looked up): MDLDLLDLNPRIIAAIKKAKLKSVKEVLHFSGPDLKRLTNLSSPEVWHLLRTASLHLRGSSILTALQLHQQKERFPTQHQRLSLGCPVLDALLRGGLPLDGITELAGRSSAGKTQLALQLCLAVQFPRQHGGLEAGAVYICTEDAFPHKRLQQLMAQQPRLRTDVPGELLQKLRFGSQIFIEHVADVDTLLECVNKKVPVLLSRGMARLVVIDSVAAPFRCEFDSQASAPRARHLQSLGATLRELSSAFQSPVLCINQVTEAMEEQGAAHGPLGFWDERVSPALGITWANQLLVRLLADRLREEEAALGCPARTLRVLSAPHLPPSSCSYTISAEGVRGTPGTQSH

T2: RAD54L WT (human, UniProt Q92698 1-747)
T2 sequence (looked up): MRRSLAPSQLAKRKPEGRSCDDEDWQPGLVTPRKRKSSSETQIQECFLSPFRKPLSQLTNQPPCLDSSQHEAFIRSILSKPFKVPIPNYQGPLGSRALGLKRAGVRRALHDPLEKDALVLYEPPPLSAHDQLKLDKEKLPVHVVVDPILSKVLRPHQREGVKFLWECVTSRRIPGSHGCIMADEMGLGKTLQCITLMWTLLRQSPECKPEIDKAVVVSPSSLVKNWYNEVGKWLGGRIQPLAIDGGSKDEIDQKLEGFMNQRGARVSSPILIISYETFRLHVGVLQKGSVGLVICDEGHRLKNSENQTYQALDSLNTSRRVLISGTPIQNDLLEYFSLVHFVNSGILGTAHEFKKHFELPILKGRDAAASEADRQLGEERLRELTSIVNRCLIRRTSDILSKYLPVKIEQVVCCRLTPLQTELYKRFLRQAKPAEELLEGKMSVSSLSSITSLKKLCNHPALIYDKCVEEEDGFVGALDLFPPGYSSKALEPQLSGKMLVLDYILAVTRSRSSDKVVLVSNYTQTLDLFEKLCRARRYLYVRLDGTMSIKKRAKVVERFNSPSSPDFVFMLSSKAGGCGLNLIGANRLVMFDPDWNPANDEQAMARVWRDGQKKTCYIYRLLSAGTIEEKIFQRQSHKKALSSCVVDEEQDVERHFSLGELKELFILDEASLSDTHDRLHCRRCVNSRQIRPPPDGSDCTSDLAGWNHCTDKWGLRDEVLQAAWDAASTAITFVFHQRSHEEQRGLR

B1: RAD51 WT (natural protein, human, UniProt Q06609 1-339, looked up)
chain: MAMQMQLEANADTSVEEESFGPQPISRLEQCGINANDVKKLEEAGFHTVEAVAYAPKKELINIKGISEAKADKILAEAAKLVPMGFTTATEFHQRRSEIIQITTGSKELDKLLQGGIETGSITEMFGEFRTGKTQICHTLAVTCQLPIDRGGGEGKAMYIDTEGTFRPERLLAVAERYGLSGSDVLDNVAYARAFNTDHQTQLLYQASAMMVESRYALLIVDSATALYRTDYSGRGELSARQMHLARFLRMLLRLADEFGVAVVITNQVVAQVDGAAMFAADPKKPIGGNIIAHASTTRLYLRKGRGETRICKIYDSPCLPEAEAMFAINADGVGDAKD
B2: RAD51 A55V (natural protein, human, UniProt Q06609 1-339, looked up)
chain: MAMQMQLEANADTSVEEESFGPQPISRLEQCGINANDVKKLEEAGFHTVEAVAYVPKKELINIKGISEAKADKILAEAAKLVPMGFTTATEFHQRRSEIIQITTGSKELDKLLQGGIETGSITEMFGEFRTGKTQICHTLAVTCQLPIDRGGGEGKAMYIDTEGTFRPERLLAVAERYGLSGSDVLDNVAYARAFNTDHQTQLLYQASAMMVESRYALLIVDSATALYRTDYSGRGELSARQMHLARFLRMLLRLADEFGVAVVITNQVVAQVDGAAMFAADPKKPIGGNIIAHASTTRLYLRKGRGETRICKIYDSPCLPEAEAMFAINADGVGDAKD
B3: RAD51 A79D (natural protein, human, UniProt Q06609 1-339, looked up)
chain: MAMQMQLEANADTSVEEESFGPQPISRLEQCGINANDVKKLEEAGFHTVEAVAYAPKKELINIKGISEAKADKILAEADKLVPMGFTTATEFHQRRSEIIQITTGSKELDKLLQGGIETGSITEMFGEFRTGKTQICHTLAVTCQLPIDRGGGEGKAMYIDTEGTFRPERLLAVAERYGLSGSDVLDNVAYARAFNTDHQTQLLYQASAMMVESRYALLIVDSATALYRTDYSGRGELSARQMHLARFLRMLLRLADEFGVAVVITNQVVAQVDGAAMFAADPKKPIGGNIIAHASTTRLYLRKGRGETRICKIYDSPCLPEAEAMFAINADGVGDAKD

Tests used:
Test in all cases: two-hybrid
[1] = target: B2
[2] = target: B3
[3] = target: T1, XRCC3 WT
[4] = target: B1
[5] = target: T2, RAD54L WT

Binder | Y2H % of WT [1] | Y2H % of WT [2] | Y2H % of WT [3] | Y2H % of WT [4] | Y2H % of WT [5]
B1 | 90.8 % of WT | 109 % of WT | – | – | –
B2 | – | – | 97.8 % of WT | 135 % of WT | 112 % of WT
B3 | – | – | 21.5 % of WT | 95.1 % of WT | 90.6 % of WT
